This note sets out measurements from patent US20190177366A1 (published 2019).

The labels stand for the following.
B1: Compound 67 (peptide)
peptide: Ac-CRLPWNLKRIGLPC-NH2
modifications: disulfide 1-14
SMILES: CC[C@H](C)[C@@H]1NC(=O)[C@H](CCCNC(=N)N)NC(=O)[C@H](CCCCN)NC(=O)[C@H](CC(C)C)NC(=O)[C@H](CC(N)=O)NC(=O)[C@H](Cc2c[nH]c3ccccc23)NC(=O)[C@@H]2CCCN2C(=O)[C@H](CC(C)C)NC(=O)[C@H](CCCNC(=N)N)NC(=O)[C@@H](NC(C)=O)CSSC[C@@H](C(N)=O)NC(=O)[C@@H]2CCCN2C(=O)[C@H](CC(C)C)NC(=O)CNC1=O
B2: Compound 70 (peptide)
peptide: Ac-CRLPWNLQRIALPC-NH2
modifications: disulfide 1-14
SMILES: CC[C@H](C)[C@@H]1NC(=O)[C@H](CCCNC(=N)N)NC(=O)[C@H](CCC(N)=O)NC(=O)[C@H](CC(C)C)NC(=O)[C@H](CC(N)=O)NC(=O)[C@H](Cc2c[nH]c3ccccc23)NC(=O)[C@@H]2CCCN2C(=O)[C@H](CC(C)C)NC(=O)[C@H](CCCNC(=N)N)NC(=O)[C@@H](NC(C)=O)CSSC[C@@H](C(N)=O)NC(=O)[C@@H]2CCCN2C(=O)[C@H](CC(C)C)NC(=O)[C@H](C)NC1=O
B3: Compound 72 (peptide)
peptide: Ac-CRLPWNLQAIGLPC-NH2
modifications: disulfide 1-14
SMILES: CC[C@H](C)[C@@H]1NC(=O)[C@H](C)NC(=O)[C@H](CCC(N)=O)NC(=O)[C@H](CC(C)C)NC(=O)[C@H](CC(N)=O)NC(=O)[C@H](Cc2c[nH]c3ccccc23)NC(=O)[C@@H]2CCCN2C(=O)[C@H](CC(C)C)NC(=O)[C@H](CCCNC(=N)N)NC(=O)[C@@H](NC(C)=O)CSSC[C@@H](C(N)=O)NC(=O)[C@@H]2CCCN2C(=O)[C@H](CC(C)C)NC(=O)CNC1=O
B4: Compound 71 (peptide)
peptide: Ac-CRLPWNLQRAGLPC-NH2
modifications: disulfide 1-14
SMILES: CC(=O)N[C@H]1CSSC[C@@H](C(N)=O)NC(=O)[C@@H]2CCCN2C(=O)[C@H](CC(C)C)NC(=O)CNC(=O)[C@H](C)NC(=O)[C@H](CCCNC(=N)N)NC(=O)[C@H](CCC(N)=O)NC(=O)[C@H](CC(C)C)NC(=O)[C@H](CC(N)=O)NC(=O)[C@H](Cc2c[nH]c3ccccc23)NC(=O)[C@@H]2CCCN2C(=O)[C@H](CC(C)C)NC(=O)[C@H](CCCNC(=N)N)NC1=O
B5: Compound 68 (peptide)
peptide: Ac-CRLPWNLQRIGLAC-NH2
modifications: disulfide 1-14
SMILES: CC[C@H](C)[C@@H]1NC(=O)[C@H](CCCNC(=N)N)NC(=O)[C@H](CCC(N)=O)NC(=O)[C@H](CC(C)C)NC(=O)[C@H](CC(N)=O)NC(=O)[C@H](Cc2c[nH]c3ccccc23)NC(=O)[C@@H]2CCCN2C(=O)[C@H](CC(C)C)NC(=O)[C@H](CCCNC(=N)N)NC(=O)[C@@H](NC(C)=O)CSSC[C@@H](C(N)=O)NC(=O)[C@H](C)NC(=O)[C@H](CC(C)C)NC(=O)CNC1=O
B6: Compound 69 (peptide)
peptide: Ac-CRLPWNLQRIGAPC-NH2
modifications: disulfide 1-14
SMILES: CC[C@H](C)[C@@H]1NC(=O)[C@H](CCCNC(=N)N)NC(=O)[C@H](CCC(N)=O)NC(=O)[C@H](CC(C)C)NC(=O)[C@H](CC(N)=O)NC(=O)[C@H](Cc2c[nH]c3ccccc23)NC(=O)[C@@H]2CCCN2C(=O)[C@H](CC(C)C)NC(=O)[C@H](CCCNC(=N)N)NC(=O)[C@@H](NC(C)=O)CSSC[C@@H](C(N)=O)NC(=O)[C@@H]2CCCN2C(=O)[C@H](C)NC(=O)CNC1=O

Bridge positions count the residues as written; N and C are the ends. Ends that are not written are not given here.

For one assay, the target named is T1, His-tagged, full-length PCSK9 (human, UniProt A8T644 31-152; Q8NBP7 153-692).
T1 construct: Target protein of the PCSK9/EGF(A) TR-FRET assay (10 nM); also called His-PCSK9; proprotein convertase subtilisin/kexin type 9
T1 sequence (A8T644 31-152 limits assumed, chain 1 of 2): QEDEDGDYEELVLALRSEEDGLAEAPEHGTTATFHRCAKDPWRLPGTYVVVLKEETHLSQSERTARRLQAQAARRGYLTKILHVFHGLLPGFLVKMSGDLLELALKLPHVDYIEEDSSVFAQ
T1 sequence (A8T644 other isoform, or with tags, fused parts or gaps limits assumed, chain 2 of 2): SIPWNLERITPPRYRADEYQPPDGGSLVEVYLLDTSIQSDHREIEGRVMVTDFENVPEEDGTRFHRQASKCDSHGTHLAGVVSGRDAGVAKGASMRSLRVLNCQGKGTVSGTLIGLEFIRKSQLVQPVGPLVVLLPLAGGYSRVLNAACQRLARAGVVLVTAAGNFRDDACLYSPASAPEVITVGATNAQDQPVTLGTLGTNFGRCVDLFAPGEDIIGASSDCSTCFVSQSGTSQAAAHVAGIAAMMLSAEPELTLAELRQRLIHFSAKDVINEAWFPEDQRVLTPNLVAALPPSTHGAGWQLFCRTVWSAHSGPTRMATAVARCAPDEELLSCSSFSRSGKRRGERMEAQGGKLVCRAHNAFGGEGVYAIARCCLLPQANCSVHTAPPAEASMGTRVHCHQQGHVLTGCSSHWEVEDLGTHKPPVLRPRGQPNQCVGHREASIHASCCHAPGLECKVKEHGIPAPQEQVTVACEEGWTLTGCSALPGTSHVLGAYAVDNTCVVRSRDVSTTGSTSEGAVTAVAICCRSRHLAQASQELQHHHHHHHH
Put plainly: TR-FRET competition; competitor EGF(A)-Fc on His-PCSK9.
With Ac-SGCFIPWNLQRIGLLC-NH2 (disulfide 3-16 (inferred)) [Compound 29], the IC50 is > 50 µM. The same measure, in the same setting: for Ac-CFIPWNLQRIGLLC-NH2 (disulfide 1-14 (inferred)) [Compound 31] the value was > 50 µM. For the molecule Ac-CRLPWNLQRIGLPC-NH2 (disulfide 1-14 (inferred)) [Compound 32], the IC50 is > 50 µM.

As for B1, the IC50 is > 50 µM. Still for that read-out and setting: for B2 the value was > 50 µM; for B3, > 50 µM. Take B4: the half-inhibitory concentration (IC50) was > 50 µM. With B5, the IC50 is > 50 µM. On the same count and under the same terms, under B6 stands > 50 µM; under Ac-SGCRLPWNLQRIGLPC-NH2 (disulfide 3-16 (inferred)) [Compound 30], > 50 µM.

The target of another assay is T2, proprotein convertase subtilisin/kexin type 9 (PCSK9) (human, UniProt Q8NBP7 31-152).
T2 construct: domain: prodomain; Recombinant; tag not written as a part; also called rec.PCSK9; His-PCSK9
T2 sequence (Q8NBP7 31-152 limits assumed, chain 1 of 2): as the sequence (A8T644 31-152 limits assumed, chain 1 of 2) above
T2 sequence (Q8NBP7 153-692 limits assumed, chain 2 of 2): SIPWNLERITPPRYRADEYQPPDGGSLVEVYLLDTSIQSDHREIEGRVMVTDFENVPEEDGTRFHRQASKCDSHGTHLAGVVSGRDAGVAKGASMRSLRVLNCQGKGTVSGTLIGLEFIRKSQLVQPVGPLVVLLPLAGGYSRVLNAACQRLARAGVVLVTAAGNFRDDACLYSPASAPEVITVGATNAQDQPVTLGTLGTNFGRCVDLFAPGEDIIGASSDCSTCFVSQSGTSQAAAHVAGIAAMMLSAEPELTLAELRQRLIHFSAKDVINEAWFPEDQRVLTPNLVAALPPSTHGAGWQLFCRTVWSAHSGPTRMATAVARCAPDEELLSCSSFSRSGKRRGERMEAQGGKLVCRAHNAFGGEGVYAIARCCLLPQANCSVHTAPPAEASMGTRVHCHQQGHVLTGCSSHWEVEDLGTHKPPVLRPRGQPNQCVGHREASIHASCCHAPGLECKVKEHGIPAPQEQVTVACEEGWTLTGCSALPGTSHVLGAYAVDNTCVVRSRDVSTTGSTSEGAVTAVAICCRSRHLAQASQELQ
The assay is described as follows: phage spot ELISA.
In the case of TAFTSWEEYLDWVGSGRCESKGWANTCVSE (phage clone) [SEQ ID NO 362], the binding result is given as “binds”. The same measure, in the same setting: under SGPRTYLRGLVD (phage clone without anchor) [SEQ ID NO 366] stands “binds”; under SGNALWNHDRLT (phage clone without anchor) [SEQ ID NO 379], “binds”. On to SGRNGSGYINRGIEIW (phage clone without anchor) [SEQ ID NO 380], for which the binding result was “binds”. Same read-out and setting: for SGMVYVDRGVRVFT (phage clone without anchor) [SEQ ID NO 368] the value was “binds”; for SGTPEMPAML (phage clone without anchor) [SEQ ID NO 374], “binds”; for SGEHQFYSYRGVDVYR (phage clone without anchor) [SEQ ID NO 370], “binds”. The same measure, in the same setting: under SGDFIPWNLVRIGLLR [SEQ ID NO 385] stands “binds”; under SGACLNHFVSGNMIRC (not fully specified (bridges); cysteine pairing not given here, phage clone without anchor) [SEQ ID NO 371], “binds”. Take SGRCLNHLISGNMNSC (not fully specified (bridges); cysteine pairing not given here) [SEQ ID NO 387]: the binding result is reported as “binds”. Same read-out and setting: for SGNCWSSLRGICENLG (not fully specified (bridges); cysteine pairing not given here, phage clone without anchor) [SEQ ID NO 367] the value was “binds”; for TAFTSWEEYLDWVGSGQVTSLPQA (phage clone) [SEQ ID NO 363], “binds”. Still for that read-out and setting: for SGVCSDHYIGGKEVRC (not fully specified (bridges); cysteine pairing not given here, phage clone without anchor) [SEQ ID NO 378] the value was “binds”. Still for that read-out and setting: for SGSYRGAWSVFGGSTD (phage clone without anchor) [SEQ ID NO 372] the value was “binds”. As to SGCSDLWNLARIYPMC (not fully specified (bridges); cysteine pairing not given here) [SEQ ID NO 391], the binding result was “binds”. For the molecule SGCFIPWNLQRIGLLC [SEQ ID NO 383], the binding result is “binds”. Still for that read-out and setting: for SGGSMPWNLERIFALH [SEQ ID NO 390] the value was “binds”. Same read-out and setting: for SGAGKLDLSG (phage clone without anchor) [SEQ ID NO 377] the value was “binds”; for SGGACPWNLERIGLSC [SEQ ID NO 384], “binds”. Same read-out and setting: under SGACVKPCIAGNIIR (not fully specified (bridges); cysteine pairing not given here) [SEQ ID NO 388] stands “binds”. Regarding SGGSIPWNLERITPPR (phage clone without anchor) [SEQ ID NO 382], the binding result is listed as “binds”. Turning to TAFTSWEEYLDWVGSGPTSGLTPS (phage clone) [SEQ ID NO 361], the binding result is given as “binds”. Same read-out and setting: for SGCRLPWNLQRIGLPC [SEQ ID NO 386] the value was “binds”; for SGGCVKYRGSVSCQESKT (not fully specified (bridges); cysteine pairing not given here, phage clone without anchor) [SEQ ID NO 369], “binds”. Consider SGDTRSQLSH (phage clone without anchor) [SEQ ID NO 376], for which the binding result is on record as “binds”. Still for that read-out and setting: under SGCWTYLRGGCSVT (not fully specified (bridges); cysteine pairing not given here, phage clone without anchor) [SEQ ID NO 373] stands “binds”. With SGLAPTVSDS (phage clone without anchor) [SEQ ID NO 375], the binding result is “binds”. Still for that read-out and setting: for SGHASKGMVLSG (phage clone without anchor) [SEQ ID NO 381] the value was “binds”.

The IC50 is the concentration that gives 50% inhibition.
